# Laboratory results reported in patent publication US20220332795A1 (ARO BIOTHERAPEUTICS, published 2022).
# Numbering of substitutions follows the chain as printed.
# B1: SEQ ID NO 168 (designed binder)
# chain: MLPAPKNLVVSRVTEDSARLSWTAPDAAFDSFYIAYAEPRPDGEAILLDVPGSERSYDLTGLKPGTEYSVLIHGVKGGLLSSPLSAIFTT
# notes: FN3 domain
# B2: SEQ ID NO 128 (designed binder)
# chain: B1 chain with L47V, D49R, S85I, I87S
# notes: FN3 domain
# B3: SEQ ID NO 133 (designed binder)
# chain: B1 chain with L47Y, D49Y, S85D, I87F
# notes: FN3 domain
# B4: SEQ ID NO 131 (designed binder)
# chain: B1 chain with L47H, D49W, S85I, I87H
# notes: FN3 domain
# B5: SEQ ID NO 122 (designed binder)
# chain: B1 chain with L47I, D49V, I87H
# notes: FN3 domain
# B6: SEQ ID NO 125 (designed binder)
# chain: B1 chain with L47A, D49H, S85V, I87F
# notes: FN3 domain
# B7: SEQ ID NO 129 (designed binder)
# chain: B1 chain with L47N, D49W, S85D, I87S
# notes: FN3 domain
# B8: SEQ ID NO 135 (designed binder)
# chain: B1 chain with L47Q, D49A, S85H, I87F
# notes: FN3 domain
# B9: SEQ ID NO 118 (designed binder)
# chain: B1 chain with L47W, D49V, S85V, I87S
# notes: FN3 domain
# B10: SEQ ID NO 132 (designed binder)
# chain: B1 chain with Y33F, A35P, R40S, D42T, L47V, D49T, I87H
# notes: FN3 domain
# B11: SEQ ID NO 147 (designed binder)
# chain: B1 chain with L47V, D49E, S85D, I87H
# notes: FN3 domain
# B12: SEQ ID NO 120 (designed binder)
# chain: B1 chain with L47H, D49S, S85V
# notes: FN3 domain
# B13: SEQ ID NO 106 (designed binder)
# chain: B1 chain with S85Y, I87S
# notes: FN3 domain
# B14: SEQ ID NO 113 (designed binder)
# chain: B1 chain with L47N, D49Q, S85V, I87F
# notes: FN3 domain
# B15: SEQ ID NO 104 (designed binder)
# chain: B1 chain with L47S, D49L, S85Y, I87V
# notes: FN3 domain
# B16: SEQ ID NO 143 (designed binder)
# chain: B1 chain with D49F, S85V, I87H
# notes: FN3 domain
# B17: SEQ ID NO 116 (designed binder)
# chain: B1 chain with L47Q, D49V
# notes: FN3 domain
# B18: SEQ ID NO 137 (designed binder)
# chain: B1 chain with L47V, S85V, I87E
# notes: FN3 domain
# B19: SEQ ID NO 145 (designed binder)
# chain: B1 chain with D49Q, S85T
# notes: FN3 domain
# B20: SEQ ID NO 119 (designed binder)
# chain: B1 chain with L47N, S85V, I87E
# notes: FN3 domain
# B21: SEQ ID NO 117 (designed binder)
# chain: B1 chain with L47T
# notes: FN3 domain
# B22: SEQ ID NO 124 (designed binder)
# chain: B1 chain with L47Q, D49H, S85L, I87S
# notes: FN3 domain
# B23: SEQ ID NO 105 (designed binder)
# chain: B1 chain with L47F, D49V, S85H, I87N
# notes: FN3 domain
# B24: SEQ ID NO 138 (designed binder)
# chain: B1 chain with A4T, L47Q, D49R, S85H, I87S
# notes: FN3 domain
# B25: SEQ ID NO 148 (designed binder)
# chain: B1 chain with L47A, D49H, S85R, I87V
# notes: FN3 domain
# B26: SEQ ID NO 127 (designed binder)
# chain: B1 chain with L47F, D49G
# notes: FN3 domain
# B27: SEQ ID NO 112 (designed binder)
# chain: B1 chain with D49L
# notes: FN3 domain
# B28: SEQ ID NO 146 (designed binder)
# chain: B1 chain with L47T, D49H
# notes: FN3 domain
# B29: SEQ ID NO 144 (designed binder)
# chain: B1 chain with L47G, D49Y, S85G, I87F
# notes: FN3 domain
# B30: SEQ ID NO 141 (designed binder)
# chain: B1 chain with L47F, D49G, S85I, I87F
# notes: FN3 domain
# B31: SEQ ID NO 134 (designed binder)
# chain: B1 chain with L47G, D49Q
# notes: FN3 domain
# B32: SEQ ID NO 103 (designed binder)
# chain: MLPAPKNLVVSRVTEDSARLSWTAPDAAFDSFHIVYHEPRPSGEAIWLHVPGSERSYDLTGLKPGTEYEVGIVSVKGGDLSVPLVAFFTT
# notes: FN3 domain
# Molecular target: T1, recombinant biotinylated human CD71 extracellular domain (human, UniProt P02786 89-760, biotinylated)
# T1 construct: extracellular domain; also called hCD71; huCD71 ECD
# Assay: solution ELISA
# T1 sequence (P02786 other isoform, or with tags, fused parts or gaps): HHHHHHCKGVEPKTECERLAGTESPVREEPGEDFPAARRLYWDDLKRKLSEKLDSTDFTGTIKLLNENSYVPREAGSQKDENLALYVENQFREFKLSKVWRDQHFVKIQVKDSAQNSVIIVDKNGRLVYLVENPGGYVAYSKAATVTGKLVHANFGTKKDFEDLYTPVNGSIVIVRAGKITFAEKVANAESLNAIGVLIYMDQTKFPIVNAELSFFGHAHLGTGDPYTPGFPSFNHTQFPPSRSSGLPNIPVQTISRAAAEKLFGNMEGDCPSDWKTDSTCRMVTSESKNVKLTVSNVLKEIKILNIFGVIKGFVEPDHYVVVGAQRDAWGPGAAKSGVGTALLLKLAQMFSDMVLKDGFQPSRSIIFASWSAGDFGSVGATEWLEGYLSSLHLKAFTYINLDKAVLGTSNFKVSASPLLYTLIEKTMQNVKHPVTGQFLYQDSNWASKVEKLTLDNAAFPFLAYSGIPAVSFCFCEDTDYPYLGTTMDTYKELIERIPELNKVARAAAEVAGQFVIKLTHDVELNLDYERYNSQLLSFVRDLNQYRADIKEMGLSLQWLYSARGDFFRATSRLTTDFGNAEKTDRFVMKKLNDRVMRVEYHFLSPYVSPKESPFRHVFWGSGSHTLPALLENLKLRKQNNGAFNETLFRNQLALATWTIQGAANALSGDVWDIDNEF
row,Binder,"hCD71, RLU [RLU]"
1,B1,3.97e+06
2,B2,4.31e+06
3,B3,1.04e+06
4,B4,203000
5,B5,4.77e+06
6,B6,1.23e+06
7,B7,219000
8,B8,967000
9,B9,1.73e+06
10,B10,1.78e+06
11,B11,2.94e+06
12,B12,501000
13,B13,4.97e+06
14,B14,1.27e+06
15,B15,947000
16,B16,3.25e+06

row,Binder,"hCD71, RLU [RLU]"
1,B17,428000
2,B18,5.11e+06
3,B19,6.2e+06
4,B20,1.25e+06
5,B21,1.3e+06
6,B22,1.54e+06
7,B23,2.43e+06
8,B24,1.08e+06
9,B25,290000
10,B26,1.41e+06
11,B27,4.48e+06
12,B28,1.08e+06
13,B29,516000
14,B30,965000
15,B31,640000
16,B32,818000

# Molecular target: T2, CD71 apical domain (UniProt P02786 189-383, limits assumed)
# T2 construct: domain: Apical domain
# Assay: solution ELISA
# T2 sequence (P02786 189-383 limits assumed): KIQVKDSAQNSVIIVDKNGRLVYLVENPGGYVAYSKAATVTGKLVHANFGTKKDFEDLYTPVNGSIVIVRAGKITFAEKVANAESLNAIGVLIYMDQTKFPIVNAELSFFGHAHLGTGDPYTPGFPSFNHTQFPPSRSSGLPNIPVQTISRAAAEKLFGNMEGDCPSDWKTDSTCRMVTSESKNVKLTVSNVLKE
row,Binder,"Apical domain, RLU [RLU]"
1,B1,6.86e+06
2,B2,7.41e+06
3,B3,4.74e+06
4,B4,5.28e+06
5,B5,8.06e+06
6,B6,5.26e+06
7,B7,4.18e+06
8,B8,6.05e+06
9,B9,6.58e+06
10,B10,7.43e+06
11,B11,6.89e+06
12,B12,5.75e+06
13,B13,7.37e+06
14,B14,5.83e+06
15,B15,5.9e+06
16,B16,7.51e+06

row,Binder,"Apical domain, RLU [RLU]"
1,B17,4.93e+06
2,B18,7.87e+06
3,B19,8.3e+06
4,B20,4.93e+06
5,B21,5.36e+06
6,B22,5.46e+06
7,B23,6.79e+06
8,B24,5.35e+06
9,B25,3.41e+06
10,B26,6.24e+06
11,B27,7.7e+06
12,B28,5.72e+06
13,B29,3.91e+06
14,B30,4.96e+06
15,B31,5.39e+06
16,B32,4.14e+06

# Molecular target: T1, recombinant biotinylated human CD71 …
# Assay: solution ELISA, signal ratio to HSA
row,Binder,hCD71:HSA
1,B1,271
2,B2,121
3,B3,41
4,B4,10.3
5,B5,351
6,B6,76.2
7,B7,13.8
8,B8,42.1
9,B9,120
10,B10,43.2
11,B11,204
12,B12,42.5
13,B13,118
14,B14,42.6
15,B15,89.8
16,B16,157

row,Binder,hCD71:HSA
1,B17,37.1
2,B18,268
3,B19,348
4,B20,57.6
5,B21,75.4
6,B22,63.1
7,B23,142
8,B24,74.3
9,B25,21.1
10,B26,66.3
11,B27,413
12,B28,63.7
13,B29,30.8
14,B30,37
15,B31,36.7
16,B32,28.2

# Molecular target: T2, CD71 apical domain
# Assay: solution ELISA, signal ratio to HSA
row,Binder,apical domain:HSA
1,B1,468
2,B2,209
3,B3,186
4,B4,269
5,B5,592
6,B6,327
7,B7,264
8,B8,263
9,B9,459
10,B10,180
11,B11,478
12,B12,487
13,B13,176
14,B14,196
15,B15,559
16,B16,363

row,Binder,apical domain:HSA
1,B17,427
2,B18,412
3,B19,466
4,B20,228
5,B21,312
6,B22,224
7,B23,397
8,B24,369
9,B25,248
10,B26,292
11,B27,709
12,B28,337
13,B29,234
14,B30,190
15,B31,309
16,B32,143
